tested on: MS2 coat protein; assay: apparent KD of MS2 coat protein, switch OFF state (with FMN for OFF switches, without FMN for ON switches); designed switch direction (-1 OFF switch, 1 ON switch): -1; higher = weaker reporter binding; details: FMN input: 0 or 200 uM; Eterna round: R93 (includes R88 designs)
Outline: (§1)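 Each design's apparent KD comes from the median of binding-curve fits to its normalised clusters. Those clusters carried RNA switches transcribed on-chip from Illumina sequencing clusters. SNAP-549-labelled MS2 coat protein was titrated onto them in twofold steps (0.7 or 1.5 nM to 3 µM; per step 0.8–1.5 h down to 10–20 min). Conditions were 100 mM Tris-HCl pH 7.5, 80 mM KCl, 4 mM MgCl2, without or with constant ligand.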

Sequence	apparent KD of MS2 coat protein [µM]
AAAAAGUCAGGAUAUACAGAUAAAAAAACGAAAAAAAAUCUGUAGAAGGGACAUGAGGAUCACCCAUGUAAAAA [Ex 4 May 1]	0.0401
CAACAGUCAGGAUAUGCAAAAAAAACGCAACGCAAAAAAAAGCAGAAGGGACAUGAGGAUCACCCAUGUUGUCG [Exclusion4-03]	0.0229
GUAGAGUGAGGAUAUGAUUAAAAGAAGGGAAAGAGACAGCAUCAGAAGGCACAUGAGGAUCACCCAUGUAUGAA [JR_Exc004_Sub1224]	0.0271
AGCAAGUCAGGAUAUACGAACAAGACAAAAGACGUGAAGGGACAUGAGGAUCACCCAUGUAGAAGGGACAAGCA [74%, Web mod - With 4 less U's]	0.0558
AAAACUGGAGGAUAUACAUGAGGAUCACCCAUGUGUGGGUGGGCUGUGUCGGCGUCAGGUAGAAGGCCACAAAA [Gilly Gone Silly 33 - Jieux - Exclusion 3]	0.108
AAAAAGUGAGGAUAUACAUGAGGAUCACCCAUGUGAAAGUCGAAAAAAAAGACAAGAAGUAGAAGGCACAAAAA [Fiskers Exclusion 3 D2 variant]	0.0293
AAAGAUGGAGGAUAUACAUGAGGAUCACCCAUGUAGAAAAAAAAUUGGGAAAAAGAAAGUAGAAGGCCAAAAAA [Ex 3 May 43]	0.0729
UUAAUAGUAGGAUAUACAUGAGGAUCACCCAUGUAGCAACUACACAAAGGAACCUGAUGUAGAAGGACUUCCAG [Attionuson]	0.0136
AAACUACUAGGAUAUACAACGGUGUCCUAACUACUAAGAAGACAUGAGGAUCACCCAUGUAGAAGGAGUAGUGA [Sosogeen]	0.0378
GGCUAGUCAGGAUAUACGAACAUGUCAAAAGACGUGAAGGGACAUGAGGAUCACCCAUGUAGAAGGGACUAGCA [salish99-ex2-12]	0.183
UAAAGACAUGAGGAUCACCCAUGUGAGGAUAUCGGAGAUAACAGAACAUCAAGUUCAACGAGAAGGCACAGAAA [JR_Exc001_Sub401]	0.0947
AGCUAGUCAGGAUAUACGAAAAUGUCAGAGGCAGUAAGGGAACAUGAGGAUCACCCAUGUAGAAGGGACUAGCA [Diamond 40]	0.0877
AGCUAGCAAGGAUAUGCGAACAUGUCAAAAGACGUGAAGGGACAUGAGGAUCACCCAUGUAGAAGGUGCUAGCA [JL 74% mod 9]	0.0276
AACAGACAUGAGGAUCACCCAUGUGAGGAUAUCCAAAACGAUAAAACAAGAAUGACAGGGAGAAGGCACAGCAA [JR_Exc001_Sub008]	0.0522
GAAAAGUGAGGAUAUUCGGAUAGGAAAACGAAAACCUAUCCGAAGAAGGCACAUGAGGAUCACCCAUGUGGAAA [Mat - Exaclusion 4 - Eli mod - D45]	0.0315
GGUUGGGUAGGAUAUACAUGAGGAUCACCCAUGUGAGAGAAAAAAGUGAGAAAGAAAAGUAGAAGGGCUUGACG [salish99-ex3-67]	0.0587
AAGAACUCAGGAUAUACAUGAAAGAAAGAAAAGAAAAGAAAACAUGAGGAUCACCCAUGUAGAAGGGAGAAGAA [EteRNA is fun!]	0.0306

Sequence	apparent KD of MS2 coat protein [µM]
CUCUUGUGAGGAUAUGCAAGAAAAGAAAAGAAAGAAAAGAAGCAGAAGGCACAUGAGGAUCACCCAUGUAAGAA [EteRNA is fun!]	0.0259
AAAAAACAUGAGGAUCACCCAUGUAAGGAUAUGCGAUGGAAAAUAAAAAUAAAACAUAGCAGAAGGUACACCAA [Amethyst 82]	0.0282
AACAGUACAGGAUAUACAUGAGGAUCACCCAUGUGACAGAAAUAAAACAAAAAUAAAAGUAGAAGGGUACUGGA [Ruby 42]	0.0612
GAAAAGUCAGGAUAUGUGGAAAAAAUAAAAAAAAUAAAAACACAGAAGGGACAUGAGGAUCACCCAUGUUAAAA [Mat - Exclusion 4 - Mayanna - D137]	0.0288
AAGAGUAGAGGAUAUACGAAAAAAGAGUCGAAAGACUCGGGACAUGAGGAUCACCCAUGUAGAAGGCUACUCAA [Hyphema Seclusion Mod 62% 5]	0.11
AAAUGACAUGAGGAUCACCCAUGUCAGGAUAUGACUUGAAAAAAAAAAAAAAAACAUGUCAGAAGGGACAUGAA [Design 48: Sub-opt E]	0.0168
AACUAGUCAGGAUAUACGAACAUGUCAAAAGACAUGAAGGGACAUGAGGAUCACCCAUGUAGAAGGGACUAGCA [74%, Web mod - With 2 less G's]	0.148
AACUGACAUGAGGAUCACCCAUGUCAGGAUAUGAUAUGUAAAAAAAUAAAAAUACUUAUCAGAAGGGACAUGGG [Design 39: Sub-opt A]	0.02
AAGAAGGAAGGAUAUACAUGAGGAUCACCCAUGUAAAAGAAAGAGGGAAAAGAGAAAAGUAGAAGGUCCAAGAA [Ptolemy V Epiphanes]	0.0303
AAGAACGAAGGAUAUACAUGAGGAUCACCCAUGUAAAAGAAAGAAAGGGAAAAGAAAAGUAGAAGGUCGAAGAA [Sekhemkheperre Osorkon I]	0.0312
UUGGGACAUGAGGAUCACCCAUGUAAGGAUAUUGGCGCGCCGGCUCUGUCUGUUCCGCCGAGAAGGUACACGUU [Exclusion I]	0.102
AGCUAGUCAGGAUAUACGAACAAGACAAAAGACGUGAAGGGACAUGAGGAUCACCCAUGUAGAAGGGACUAGCA [74%, Web mod - With 2 less U's]	0.0713
AAAAAACAUGAGGAUCACCCAUGUGAGGAUAUGGAAAAAUAAGGACAGUAAAGAUAAACCAGAAGGCACAAAUA [JR_Exc001_Sub1101]	0.0241
GAAAAACAUGAGGAUCACCCAUGUCAGGAUAUACAAAAAUAAAUAAAAAUAAAAUAAAGUAGAAGGGACAAAAG [Mat - Same state - Mayanna Mod - D110]	0.0573
AGCUAGUCAGGAUAUACGAACAGGUCAAAAGACCUGAAGGGACAUGAGGAUCACCCAUGUAGAAGGGACUAGCA [Mat - Exclusion 2 - JL mod - D28]	0.131
GGUUGGCGAGGAUAUACAUGAGGAUCACCCAUGUGAGAAAAAAAAGUGAGAAAGAAAAGUAGAAGGCGCUGACG [salish99-ex3-49]	0.157
AAAAAACAUGAGGAUCACCCAUGUCAGGAUAUACAAAAAUAAAUAAAAAUAAAAUAAAGUAGAAGGGACAAAAA [May 9]	0.0369

tested on: MS2 coat protein; assay: apparent KD of MS2 coat protein, switch ON state; designed switch direction (-1 OFF switch, 1 ON switch): -1; higher = weaker reporter binding; details: FMN input: 0 or 200 uM; Eterna round: R93 (includes R88 designs)
Outline: as §1

Sequence	apparent KD of MS2 coat protein [µM]
AAAAAGUCAGGAUAUACAGAUAAAAAAACGAAAAAAAAUCUGUAGAAGGGACAUGAGGAUCACCCAUGUAAAAA [Ex 4 May 1]	0.0618
CAACAGUCAGGAUAUGCAAAAAAAACGCAACGCAAAAAAAAGCAGAAGGGACAUGAGGAUCACCCAUGUUGUCG [Exclusion4-03]	0.0295
GUAGAGUGAGGAUAUGAUUAAAAGAAGGGAAAGAGACAGCAUCAGAAGGCACAUGAGGAUCACCCAUGUAUGAA [JR_Exc004_Sub1224]	0.0269
AGCAAGUCAGGAUAUACGAACAAGACAAAAGACGUGAAGGGACAUGAGGAUCACCCAUGUAGAAGGGACAAGCA [74%, Web mod - With 4 less U's]	0.0791
AAAACUGGAGGAUAUACAUGAGGAUCACCCAUGUGUGGGUGGGCUGUGUCGGCGUCAGGUAGAAGGCCACAAAA [Gilly Gone Silly 33 - Jieux - Exclusion 3]	0.201
AAAAAGUGAGGAUAUACAUGAGGAUCACCCAUGUGAAAGUCGAAAAAAAAGACAAGAAGUAGAAGGCACAAAAA [Fiskers Exclusion 3 D2 variant]	0.0243
AAAGAUGGAGGAUAUACAUGAGGAUCACCCAUGUAGAAAAAAAAUUGGGAAAAAGAAAGUAGAAGGCCAAAAAA [Ex 3 May 43]	0.0387
UUAAUAGUAGGAUAUACAUGAGGAUCACCCAUGUAGCAACUACACAAAGGAACCUGAUGUAGAAGGACUUCCAG [Attionuson]	0.0124
AAACUACUAGGAUAUACAACGGUGUCCUAACUACUAAGAAGACAUGAGGAUCACCCAUGUAGAAGGAGUAGUGA [Sosogeen]	0.0503
GGCUAGUCAGGAUAUACGAACAUGUCAAAAGACGUGAAGGGACAUGAGGAUCACCCAUGUAGAAGGGACUAGCA [salish99-ex2-12]	0.0315
UAAAGACAUGAGGAUCACCCAUGUGAGGAUAUCGGAGAUAACAGAACAUCAAGUUCAACGAGAAGGCACAGAAA [JR_Exc001_Sub401]	0.0474
AGCUAGUCAGGAUAUACGAAAAUGUCAGAGGCAGUAAGGGAACAUGAGGAUCACCCAUGUAGAAGGGACUAGCA [Diamond 40]	0.0361
AGCUAGCAAGGAUAUGCGAACAUGUCAAAAGACGUGAAGGGACAUGAGGAUCACCCAUGUAGAAGGUGCUAGCA [JL 74% mod 9]	0.0357
AACAGACAUGAGGAUCACCCAUGUGAGGAUAUCCAAAACGAUAAAACAAGAAUGACAGGGAGAAGGCACAGCAA [JR_Exc001_Sub008]	0.0652
GAAAAGUGAGGAUAUUCGGAUAGGAAAACGAAAACCUAUCCGAAGAAGGCACAUGAGGAUCACCCAUGUGGAAA [Mat - Exaclusion 4 - Eli mod - D45]	0.0301
GGUUGGGUAGGAUAUACAUGAGGAUCACCCAUGUGAGAGAAAAAAGUGAGAAAGAAAAGUAGAAGGGCUUGACG [salish99-ex3-67]	0.0803
AAGAACUCAGGAUAUACAUGAAAGAAAGAAAAGAAAAGAAAACAUGAGGAUCACCCAUGUAGAAGGGAGAAGAA [EteRNA is fun!]	0.0397

Sequence	apparent KD of MS2 coat protein [µM]
CUCUUGUGAGGAUAUGCAAGAAAAGAAAAGAAAGAAAAGAAGCAGAAGGCACAUGAGGAUCACCCAUGUAAGAA [EteRNA is fun!]	0.0533
AAAAAACAUGAGGAUCACCCAUGUAAGGAUAUGCGAUGGAAAAUAAAAAUAAAACAUAGCAGAAGGUACACCAA [Amethyst 82]	0.0294
AACAGUACAGGAUAUACAUGAGGAUCACCCAUGUGACAGAAAUAAAACAAAAAUAAAAGUAGAAGGGUACUGGA [Ruby 42]	0.031
GAAAAGUCAGGAUAUGUGGAAAAAAUAAAAAAAAUAAAAACACAGAAGGGACAUGAGGAUCACCCAUGUUAAAA [Mat - Exclusion 4 - Mayanna - D137]	0.0524
AAGAGUAGAGGAUAUACGAAAAAAGAGUCGAAAGACUCGGGACAUGAGGAUCACCCAUGUAGAAGGCUACUCAA [Hyphema Seclusion Mod 62% 5]	0.022
AAAUGACAUGAGGAUCACCCAUGUCAGGAUAUGACUUGAAAAAAAAAAAAAAAACAUGUCAGAAGGGACAUGAA [Design 48: Sub-opt E]	0.0172
AACUAGUCAGGAUAUACGAACAUGUCAAAAGACAUGAAGGGACAUGAGGAUCACCCAUGUAGAAGGGACUAGCA [74%, Web mod - With 2 less G's]	0.044
AACUGACAUGAGGAUCACCCAUGUCAGGAUAUGAUAUGUAAAAAAAUAAAAAUACUUAUCAGAAGGGACAUGGG [Design 39: Sub-opt A]	0.0182
AAGAAGGAAGGAUAUACAUGAGGAUCACCCAUGUAAAAGAAAGAGGGAAAAGAGAAAAGUAGAAGGUCCAAGAA [Ptolemy V Epiphanes]	0.0265
AAGAACGAAGGAUAUACAUGAGGAUCACCCAUGUAAAAGAAAGAAAGGGAAAAGAAAAGUAGAAGGUCGAAGAA [Sekhemkheperre Osorkon I]	0.0283
UUGGGACAUGAGGAUCACCCAUGUAAGGAUAUUGGCGCGCCGGCUCUGUCUGUUCCGCCGAGAAGGUACACGUU [Exclusion I]	0.0455
AGCUAGUCAGGAUAUACGAACAAGACAAAAGACGUGAAGGGACAUGAGGAUCACCCAUGUAGAAGGGACUAGCA [74%, Web mod - With 2 less U's]	0.0262
AAAAAACAUGAGGAUCACCCAUGUGAGGAUAUGGAAAAAUAAGGACAGUAAAGAUAAACCAGAAGGCACAAAUA [JR_Exc001_Sub1101]	0.0264
GAAAAACAUGAGGAUCACCCAUGUCAGGAUAUACAAAAAUAAAUAAAAAUAAAAUAAAGUAGAAGGGACAAAAG [Mat - Same state - Mayanna Mod - D110]	0.0529
AGCUAGUCAGGAUAUACGAACAGGUCAAAAGACCUGAAGGGACAUGAGGAUCACCCAUGUAGAAGGGACUAGCA [Mat - Exclusion 2 - JL mod - D28]	0.0258
GGUUGGCGAGGAUAUACAUGAGGAUCACCCAUGUGAGAAAAAAAAGUGAGAAAGAAAAGUAGAAGGCGCUGACG [salish99-ex3-49]	0.0401
AAAAAACAUGAGGAUCACCCAUGUCAGGAUAUACAAAAAUAAAUAAAAAUAAAAUAAAGUAGAAGGGACAAAAA [May 9]	0.0289

From the supplement of paper PMC9170038
